Measurements published in PMC3653351 (The Journal of Cell Biology, 2013).

What was measured:
[1] = biological target: Myc-PK-SV40NLS (not stated | SV40); assay: SEC
Myc-PK-TprNLS = assay: SEC
GST-SV40NLS (SV40) = assay: ELISA
[2] = biological target: Recombinant KPNA2/Importin-β (UniProt P52292;Q14974); assay: ELISA
Sequence of Recombinant KPNA2/Importin-β (UniProt P52292;Q14974) (Q14974 whole entry, one chain of several): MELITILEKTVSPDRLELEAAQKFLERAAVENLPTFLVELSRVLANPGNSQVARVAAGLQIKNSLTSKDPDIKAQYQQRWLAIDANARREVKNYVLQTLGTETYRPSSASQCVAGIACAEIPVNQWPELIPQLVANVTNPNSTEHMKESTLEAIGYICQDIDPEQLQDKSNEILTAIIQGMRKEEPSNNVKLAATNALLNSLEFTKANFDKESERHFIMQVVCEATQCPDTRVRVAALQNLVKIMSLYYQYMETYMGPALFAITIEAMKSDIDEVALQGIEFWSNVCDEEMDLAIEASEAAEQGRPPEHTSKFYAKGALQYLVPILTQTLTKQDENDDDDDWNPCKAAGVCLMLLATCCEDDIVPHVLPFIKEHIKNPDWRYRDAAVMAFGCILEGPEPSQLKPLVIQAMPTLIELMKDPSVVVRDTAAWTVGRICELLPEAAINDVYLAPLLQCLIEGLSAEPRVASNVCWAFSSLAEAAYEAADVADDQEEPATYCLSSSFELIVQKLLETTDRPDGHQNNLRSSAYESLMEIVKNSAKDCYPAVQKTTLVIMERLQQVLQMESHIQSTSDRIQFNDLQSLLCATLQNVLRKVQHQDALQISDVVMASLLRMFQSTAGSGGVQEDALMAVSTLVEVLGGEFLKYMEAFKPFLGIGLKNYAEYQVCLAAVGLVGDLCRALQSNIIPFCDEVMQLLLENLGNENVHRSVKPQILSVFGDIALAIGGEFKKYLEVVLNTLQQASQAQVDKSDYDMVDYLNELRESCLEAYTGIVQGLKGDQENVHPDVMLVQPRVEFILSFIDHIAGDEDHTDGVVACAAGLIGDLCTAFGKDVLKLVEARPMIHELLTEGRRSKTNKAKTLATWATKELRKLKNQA

Myc-PK-SV40NLS showed a stoichiometry N [1] of 4.

Myc-PK-TprNLS showed a stoichiometry N (Myc-PK-TprNLS) of 4.

“Recombinant KPNA2/Importin-β (from UniProt P52292;Q14974) (complex)” showed a Kd (GST-SV40NLS (SV40)) of 10.5 nM.

B1: GST-TprNLS (domain or fragment)
chain: STAVFGTVSATPSSSLPKRTREEEEDSTIEASDQVSDDTVEMPLPKKLKSVTPVGT
With B1 the Kd [2] was 3.2 nM.
